Several values for one entry are separate records, joined by “and”; a condition that tells them apart may be missing. Equal values may be shown once.
Key:
Format in all cases: biochemical
Aβ1-42 = target: T1, Aβ1-42 (Homo sapiens, UniProt P05067); assay: Aβ1-42 fibril formation ThT fluorescence assay; settings: for decrease in ThT fluorescence of Aβ1-42: 6 μM inhibitor, 30 μM Aβ1-42, 37° C., 48 hrs; for inhibition of Aβ fibrillation: peptide to substrate concentration of 1:5
T1 construct: Aβ1-42 (American Peptide); purchased American Peptide
Procedure: The effect of five synthesized αB crystallin peptides STSLSPFYLRPPSFLRAP (ST), DRFSVNLDVKHFS (DR), HGKHEERQDE (HG), LTITSSLSSDGV (LT), and ERTIPITRE (ER) on Aβ1-42 fibrillation was measured using the ThT fluorescence assay (FIG. 1). The formation and inhibition of Aβ1-42 fibrils was qualitatively verified by fluorescence and bright-field microscopy. The concentration and stoichometry of the peptides was varied relative to Aβ1-42 to establish a concentration curve. In addition, the effect of two known inhibitors of Aβ1-42 fibrillation (APS and NAP) and a control neuropeptide (AT1) with no fibril inhibition activity was measured and compared to the effect of the αB crystallin peptides on Aβ1-42 fibrillation. The ThT fluorescence of 30 μM Aβ1-42 alone incubated at 37° C. for 48 hrs increased from ˜350,000 to ˜450,000 RFU. […] In contrast, 6 μM DR, LT, and […] had no effect on Aβ1-42 fibril formation. […] Increasing the concentration of the DR peptide to 30 μM decreased the ThT fluorescence by approximately 50%. […] However, when the concentrations of the LT and ER peptides were increased to 150 μM, a 60-100% decrease in ThT fluorescence was measured. […] The negative control peptide AT1 had no effect on Aβ1-42 fibril formation even at a concentration as high as 300 μM.
The Thioflavin T (ThT) fluorescence of Aβ1-42 in the presence of varying concentrations of αB crystallin peptides and controls was measured. […] Addition of 6 μM DR, LT, and ER had no effect on the ThT fluorescence of Aβ1-42. When the concentration of the peptides was increased to 30 μM (1:1::peptide:Aβ1-42), the αB crystallin peptides ST, DR, HG decreased the ThT fluorescence by 50-100%. At the same concentrations, APS and NAP decreased the ThT fluorescence by 30-100%. When the concentration of the peptides was increased further to 150 μM ([…]), four of the five αB crystallin peptides DR, HG, LT, and ER decreased the ThT fluorescence by 58-100%. At the same concentrations, APS and NAP decreased the fluorescence by 28-100%. […] The formation and inhibition of Aβ fibrils was verified microscopically.
Thioflavin T (ThT) Assays. The effect of the five αB crystallin peptides (ST, DR, HG, LT, and ER) on Aβ1-42 fibril formation was measured using the ThT fluorescence assay (44-47) and compared with two known inhibitors of Aβ1-42 fibril formation (Tramiprosate and NAP)(34, 36) and a negative control neuropeptide Angiotensin 1 (AT1). Thioflavin T is a fluorescent dye that has a high affinity for amyloid fibrils and becomes fluorescent (excitation λ=450 nm, emission λ=486 nm) when bound to fibrils. For the Aβ1-42 assays, peptides and APS were dissolved to 2 mM in 0.25% DMSO and diluted accordingly, while Aβ1-42 was dissolved in 20 mM Tris-Cl, pH 7.40, and 100 mM NaCl. For the 5:1::inhibitor:Aβ1-42 assay, 10 μL of 450 μM peptide or APS was mixed with 10 μL of 90 μM Aβ1-42), 7 μL 20 mM Tris-Cl, 100 mM NaCl, pH 7.4 and 3 μL of 1 mM ThT. For the 1:1::inhibitor:Aβ1-42 assay, 10 μL of 90 μM peptide or APS was mixed with 10 μL of 90 μM Aβ(1-42), 7 μL 20 mM Tris-Cl, 100 mM NaCl, pH 7.4 and 3 μL of 1 mM ThT. For the 1:5::inhibitor:Aβ1-42 assay, 10 μL of 18 μM peptide or APS was mixed with 10 μL of 90 μM Aβ(1-42), 7 μL 20 mM Tris-Cl, 100 mM NaCl, pH 7.4 and 3 μL of 1 mM ThT. ThT fluorescence in relative fluorescence units (RFU) was measured using a Perkin Elmer Victor^3 V plate reader. Assays were performed in 384-well fluorescence plates in duplicates or triplicates. Samples were incubated at 37° C. for a total of 48 hours. ThT fluorescence was measured at 0, 24, and 48 hours. The effect of the peptides and APS was calculated as percentage fibril formation relative to Aβ1-42 alone (100%) at the end of 48 hours.

transthyretin (TTR) = target: T2, transthyretin (TTR) (Homo sapiens, UniProt P02766); assay: Transthyretin fibrillation ThT assay; settings: for decrease in ThT fluorescence of TTR: 3.2 μM, 16 μM TTR, 37° C.
T2 construct: purchased Sigma-Aldrich
Procedure: The effect of the five αB crystallin peptides ST, DR, HG, LT, and ER on TTR fibrillation was measured using the ThT fluorescence assay (FIG. 26). The formation and inhibition of TTR fibrils was qualitatively verified by fluorescence and bright-field microscopy. The concentration of the peptides was varied relative to TTR to establish a concentration curve. In addition, the effect of a control neuropeptide (AT1) with no TTR fibril inhibition activity was measured and compared to the effect of the αB crystallin peptides on TTR fibril formation. The ThT fluorescence of 16 μM TTR alone incubated at 37° C. for 4 hrs, increased from ˜15,000 to ˜45,000 RFU. Addition of 3.2 μM αB crystallin peptides, ST, DR, LT, and HG decreased the ThT fluorescence of TTR by 15-70%. In contrast, 3.2 μM ER had no effect on TTR fibril formation. Increasing the concentration of the ER peptide to 16 μM decreased the ThT fluorescence of TTR by 60%. The negative control peptide AT1 had no effect on TTR fibrillation even at a concentration as high as 160 μM. All five αB crystallin peptides inhibited TTR fibrillation at sub-stoichometric and stoichometric concentrations (3.2 μM and 16 μM).
The Thioflavin T (ThT) fluorescence of TTR in the presence of varying concentrations of αB crystallin peptides and controls was measured. […] When the concentration of the peptides was increased to 16 μM (1:1::peptide:TTR), the αB crystallin peptides ST, DR, HG, LT and ER decreased the ThT fluorescence by 8-72%. When the concentration of the peptides was increased further to 80 μM ([…]), all of the five αB crystallin peptides ST, DR, HG, LT, and ER decreased the ThT fluorescence by 40-70%. […] The formation and inhibition of TTR fibrils was verified microscopically.
Transthyretin fibrillation ThT assays were performed as described previously. Hurshman et al., Biochemistry 43:7365-81, 2004; O'Nuallain and Wetzel, Proc Natl Acad Sci USA 99:1485-90, 2002. Peptides were dissolved to 2 mM in 0.25% DMSO and diluted accordingly, while TTR was dissolved in 200 mM KCl, 2 mM EDTA, 5 mM PBS, 200 mM sodium acetate, pH 4.4. For the 5::peptide:TTR assay, 10 μL of 160 μM peptide was mixed with 10 μL of 32 μM TTR, and 1 μL of 1 mM ThT. For the 1:1::peptide:TTR assay, 10 μL of 32 μM peptide was mixed with 10 μL of 32 μM TTR and 1 μL of 1 mM ThT. For the 1:5::peptide:TTR assay, 10 μL of 6.4 μM peptide was mixed with 10 μL of 32 μM TTR and 1 μL of 1 mM ThT. ThT fluorescence was measured using a Perkin Elmer Victor^3 V plate reader. Assays were performed in 384-well fluorescence plates in duplicates or triplicates. Samples were incubated at 37° C. ThT fluorescence was measured continuously for 150 minutes. The effect of the peptides and APS was calculated as percentage fibril formation relative to TTR alone (100%) at the end of 150 minutes.

Aβ = Aβ (Homo sapiens, UniProt P05067); assay: Aβ Thioflavin T fluorescence (fibrillization, 50° C., 72 hours); settings: Thioflavin T; 1:10 Aβ:peptide; 50° C., 72 hours
Procedure: Aβ Thioflaviin T fluorescence. Aβ fibrils were grown in the presence and absence of αB crystallin and peptides in conditions similar to that previously described for the presence of αB crystallin. Bakthisaran et al., Biochem J, 2005. Peptides were dissolved to 9.1 mM in trifluorethanol (TFE) and diluted to 0.91 mM stock solutions in 50 mM PBS, 100 mM NaCl, pH 7.4. 3.5 mg of Thioflavin T was dissolved in 100 μl of 50 mM Glycine pH 8.5. A stock solution of 1 mg/ml (0.22 mM) Aβ was prepared. 20 μl Aβ, 50 μl chaperone, 2 μl Thioflavin T was mixed with 28 μl 50 mM PBS, 100 mM NaCl, pH 7.4. Fluorescence was read using a Beckman Coultier DTX 880 multimode detector. Samples were heated at 50° C. for 72 hours and fluorescence was read again.
(§1) The fibrillization of Aβ was measured as fluorescence of the fluorescent dye Thioflavin T from solutions containing 1:10 monomeric molar ratio of Aβ:peptide. In the absence of Aβ fibrils, Thioflavin T had little or no fluorescence. The fluorescence of the Thioflavin T bound to Aβ fibrils in the absence of any other molecule after 72 hrs was set to 100%. […] Fibril formation=ΔfluorescenceAβ (with chaperone)*100/ΔfluorescenceAβ (without chaperone).

γD crystallin = target: T3, γD crystallin (Homo sapiens, UniProt P07320); assay: γD crystallin Thioflavin T fluorescence (fibrillization); settings: 1:1 γD crystallin:peptide
T3 sequence (P07320 2-174): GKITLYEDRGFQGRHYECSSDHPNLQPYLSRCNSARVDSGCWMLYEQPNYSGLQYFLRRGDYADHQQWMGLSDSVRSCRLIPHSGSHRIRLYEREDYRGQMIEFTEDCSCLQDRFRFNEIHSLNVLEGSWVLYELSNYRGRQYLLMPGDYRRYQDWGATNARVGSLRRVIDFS
Procedure: γD crystallin Thioflaviin T fluorescence. γD crystallin fibrils were formed in a similar way to that of γ crystalline. Meehan et al., J Biol Chem 279: 3413-3419, 2004. Peptides were dissolved to 9.1 mM in TFE and diluted to 0.91 mM stock solutions in 10% TFE, pH 2.0. 3.5 mg of Thioflavin T was dissolved in 100 μl of 50 mM Glycine pH 8.5. A stock solution of 1 mg/ml (0.22 mM) Aβ was prepared. 20 μl Aβ, 5 μl chaperone, 2 μl Thioflavin T was mixed with 73 μl 10% TFE, pH 2.0. Fluorescence was read using a Beckman Coultier DTX 880 multimode detector. Samples were heated at 50° C. for 72 hours and fluorescence was read again.
as §1, with “γD crystallin” for “Aβ”, “1:1” for “1:10”, “γD crystallin:peptide.” for “Aβ:peptide.”, “fibrils” for “Aβ fibrils,”, “formation=ΔfluorescenceγD crystallin” for “formation=ΔfluorescenceAβ”, “chaperone)*100/ΔfluorescenceγD crystallin” for “chaperone)*100/ΔfluorescenceAβ”

Molecule | decrease in ThT fluorescence of Aβ1-42 (Aβ1-42) | inhibition of Aβ fibrillation (Aβ1-42) | decrease in ThT fluorescence of TTR (transthyretin (TTR)) | inhibition of TTR fibrils, HG derived peptides (transthyretin (TTR); 1:1 ratio) | Δfluorescence (Aβ) (Aβ) | effect on the fibrillization of γD crystallin (ranking) (γD crystallin; 72 hrs) | Δfluorescence (γD crystallin) (γD crystallin; Thioflavin T, 50° C., 72 hours)
NCCCS(=O)(=O)O [APS, 3-aminopropanesulfonic acid, reference compound] | ~40% and 38% | ~38% | did not have any effect |  |  |  | 
HEER |  |  |  | ~100% |  |  | 
NAPVSIPQ [reference compound] | ~40% and 38% | ~38% | did not have any effect |  |  |  | 
αB crystallin: wild type recombinant human αB crystallin, small heat shock protein and molecular chaperone |  |  |  |  | 318,471,040 | weakest effect | 1,079,141,056

— patent publication US20070185028A1, “Compositions and methods for treatment of protein misfolding and protein aggregation diseases” (priority 2004, published 2007)
